From US20200024330A1

Columns and labels:
Experiment in all cases: cell-based or functional assay
[1] = biological target: HIV-1 Env of isolate AC10 (HIV-1)
[2] = biological target: HIV-1 Env of isolate DU156 (HIV-1)
[3] = biological target: HIV-1 Env of isolate Du172 (HIV-1)
[4] = biological target: HIV-1 Env of isolate REJ04541 (HIV-1)
[5] = biological target: HIV-1 Env of isolate THRO.18 (HIV-1)
[6] = biological target: HIV-1 Env of isolate TR0.11 (HIV-1)
[7] = biological target: HIV-1 93IN905 Env (clade C pseudovirus) (HIV-1)
[8] = biological target: HIV-1 APV17 Env (clade B pseudovirus) (HIV-1)
[9] = biological target: HIV-1 APV6 Env (clade B pseudovirus) (HIV-1)
[10] = biological target: HIV-1 JRFL Env (clade B pseudovirus) (HIV-1)
[11] = biological target: HIV-1 MGRM-D-001 Env (clade D pseudovirus) (HIV-1)
[12] = biological target: HIV-1 MGRM-D-018 Env (clade D pseudovirus) (HIV-1)
[13] = biological target: HIV-1 MGRM-A-010 Env (pseudovirus) (HIV-1)
[14] = biological target: HIV-1 MGRM-C-028 Env (pseudovirus) (HIV-1)
[15] = biological target: HIV-1 Env of isolate 92TH021 (clade AE) (HIV-1)
[16] = biological target: HIV-1 Env of isolate 93UG077 (clade A) (HIV-1)
[17] = biological target: HIV-1 Env of isolate APV13 (clade B) (HIV-1)
[18] = biological target: HIV-1 Env of isolate APV6 (clade B) (HIV-1)
[19] = biological target: HIV-1 Env of isolate JRFL (clade B) (HIV-1)
[20] = biological target: HIV-1 Env of isolate MGRM-AG-005 (clade AG) (HIV-1)
[21] = biological target: HIV-1 Env of isolate MGRM-C-028 (clade C) (HIV-1)
[22] = biological target: HIV-1 JR-CSF Env I423A (HIV-1 (isolate JR-CSF)) (UniProt P20871)
[23] = biological target: HIV-1 Env of isolate MGRM-F1-023 (clade F), on pseudovirus (HIV-1)
[24] = biological target: HIV-1 Env of isolate SF162 (subtype B) (HIV-1) (UniProt P19550)
[25] = biological target: HIV-1 envelope glycoprotein (Env) of isolate 92BR020, on pseudovirus (HIV-1)
[26] = biological target: HIV-1 envelope glycoprotein (Env) of isolate MGRM-Chronic-B-001, on pseudovirus (HIV-1)
[27] = biological target: HIV-1 Env of isolate 6535.3 (HIV-1)
[28] = biological target: HIV-1 Env of isolate 92RW009 (clade A), on pseudovirus (HIV-1)
[29] = biological target: HIV-1 Env of isolate 92UG024 (subtype D), on pseudovirus (HIV-1)
[30] = biological target: HIV-1 Env of isolate 92WR020 (pseudovirus) (HIV-1)
[31] = biological target: HIV-1 Env of isolate 93UG077 (pseudovirus) (HIV-1)
[32] = biological target: HIV-1 Env of isolate MG RM-A-005 (pseudovirus) (HIV-1)
[33] = biological target: HIV-1 Env of isolate MG RM-A-006 (pseudovirus) (HIV-1)
[34] = biological target: HIV-1 Env of isolate MG RM-A-012 (pseudovirus) (HIV-1)
[35] = biological target: HIV-1 Env of isolate MG RM-A-013 (pseudovirus) (HIV-1)
[36] = biological target: HIV-1 Env of isolate MGRM-AE-001 (pseudovirus) (HIV-1)
[37] = biological target: HIV-1 Env of isolate VLGCA1 (pseudovirus) (HIV-1)

1443_C16 (PG16) (TCN-116) (antibody), sequence (VH): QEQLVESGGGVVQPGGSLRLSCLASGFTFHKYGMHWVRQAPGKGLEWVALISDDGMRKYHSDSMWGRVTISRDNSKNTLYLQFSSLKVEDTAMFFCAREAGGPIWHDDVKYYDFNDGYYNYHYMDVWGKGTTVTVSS
1443_C16 (PG16) (TCN-116) (antibody), sequence (VL): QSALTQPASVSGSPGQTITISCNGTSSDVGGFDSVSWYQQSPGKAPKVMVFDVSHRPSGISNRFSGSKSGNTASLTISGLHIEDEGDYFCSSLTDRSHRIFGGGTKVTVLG

1443_C16 (PG16) (TCN-116) (antibody)
IC50, pseudovirus neutralization (TZM-bl) [1]: < 0.01 µg/mL | IC50, pseudovirus neutralization (TZM-bl) [2]: < 0.01 µg/mL | IC50, pseudovirus neutralization (TZM-bl) [3]: < 0.01 µg/mL | IC50, pseudovirus neutralization (TZM-bl) [4]: < 0.01 µg/mL | IC50, pseudovirus neutralization (TZM-bl) [5]: 2.19 µg/mL | IC50, pseudovirus neutralization (TZM-bl) [6]: 3.61 µg/mL

4877_D15 (PGT-122) (antibody)
Neutralization by PGT-122, IC50 [7]: 0.0138 µg/mL | Neutralization by PGT-122, IC80 [7]: 0.0505 µg/mL | Neutralization by PGT-122, IC90 [7]: 0.108 µg/mL | Neutralization by PGT-122, IC95 [7]: 0.217 µg/mL | Neutralization by PGT-122, IC50 [8]: 0.522 µg/mL | Neutralization by PGT-122, IC80 [8]: 1.76 µg/mL | Neutralization by PGT-122, IC90 [8]: 3.58 µg/mL | Neutralization by PGT-122, IC95 [8]: 6.92 µg/mL | Neutralization by PGT-122, IC50 [9]: 0.0851 µg/mL | Neutralization by PGT-122, IC80 [9]: 0.351 µg/mL | Neutralization by PGT-122, IC90 [9]: 0.779 µg/mL | Neutralization by PGT-122, IC95 [9]: 1.55 µg/mL | Neutralization by PGT-122, IC50 [10]: 0.0471 µg/mL | Neutralization by PGT-122, IC80 [10]: 0.166 µg/mL | Neutralization by PGT-122, IC90 [10]: 0.342 µg/mL | Neutralization by PGT-122, IC95 [10]: 0.659 µg/mL | Neutralization by PGT-122, IC50 [11]: 0.867 µg/mL | Neutralization by PGT-122, IC80 [11]: 4.48 µg/mL | Neutralization by PGT-122, IC90 [11]: > 10 µg/mL | Neutralization by PGT-122, IC95 [11]: > 10 µg/mL | Neutralization by PGT-122, IC50 [12]: 0.0115 µg/mL | Neutralization by PGT-122, IC80 [12]: 0.035 µg/mL | Neutralization by PGT-122, IC90 [12]: 0.0674 µg/mL | Neutralization by PGT-122, IC95 [12]: 0.125 µg/mL

5141_B17 (PGT-126) (antibody)
IC50 [13]: 0.0033 µg/mL | IC80 [13]: 0.0137 µg/mL | IC90 [13]: 0.0316 µg/mL | IC95 [13]: 0.0687 µg/mL | IC50 [14]: 0.283 µg/mL | IC80 [14]: 2.62 µg/mL | IC90 [14]: > 10 µg/mL | IC95 [14]: > 10 µg/mL

5147_N06 (PGT-130) (antibody)
neutralization IC50 [15]: 0.0082 µg/mL | neutralization IC80 [15]: 0.0261 µg/mL | neutralization IC90 [15]: 0.0513 µg/mL | neutralization IC95 [15]: 0.0963 µg/mL | neutralization IC50 [16]: > 10 µg/mL | neutralization IC80 [16]: > 10 µg/mL | neutralization IC90 [16]: > 10 µg/mL | neutralization IC95 [16]: > 10 µg/mL | neutralization IC50 [17]: 0.0345 µg/mL | neutralization IC80 [17]: 0.573 µg/mL | neutralization IC90 [17]: 2.88 µg/mL | neutralization IC95 [17]: > 10 µg/mL | neutralization IC50 [18]: > 10 µg/mL | neutralization IC80 [18]: > 10 µg/mL | neutralization IC90 [18]: > 10 µg/mL | neutralization IC95 [18]: > 10 µg/mL | neutralization IC50 [19]: 0.0346 µg/mL | neutralization IC80 [19]: 0.751 µg/mL | neutralization IC90 [19]: 5.72 µg/mL | neutralization IC95 [19]: > 10 µg/mL | neutralization IC50 [20]: 0.947 µg/mL | neutralization IC80 [20]: > 10 µg/mL | neutralization IC90 [20]: > 10 µg/mL | neutralization IC95 [20]: > 10 µg/mL | neutralization IC50 [21]: > 10 µg/mL | neutralization IC80 [21]: > 10 µg/mL | neutralization IC90 [21]: > 10 µg/mL | neutralization IC95 [21]: > 10 µg/mL

PGT-121 (antibody)
Fold IC50 increase relative to wild-type [22]: 3.3 fold

PGV04 (antibody)
IC50 (µg/mL), single-round pseudovirus neutralization [23]: 0.171 µg/mL | IC50 (µg/mL), pseudovirus neutralization [24]: 0.0028 µg/mL | IC50, pseudovirus neutralization [25]: 0.25 µg/mL | IC50, pseudovirus neutralization [26]: 0.048 µg/mL

VRC01 (antibody)
IC50 [27]: 1.75 µg/mL | IC50, single-round pseudovirus neutralization [28]: 0.187 µg/mL | IC50, pseudovirus neutralization [29]: 0.576 µg/mL | IC50 (µg/mL), pseudovirus neutralization [30]: 0.13 µg/mL | IC50 (µg/mL), pseudovirus neutralization [31]: 0.097 µg/mL | IC50 (µg/mL), pseudovirus neutralization [32]: 0.095 µg/mL | IC50 (µg/mL), pseudovirus neutralization [33]: 0.521 µg/mL | IC50 (µg/mL), pseudovirus neutralization [34]: > 50 µg/mL | IC50 (µg/mL), pseudovirus neutralization [35]: 0.152 µg/mL | IC50 (µg/mL), pseudovirus neutralization [36]: 0.167 µg/mL | IC50 (µg/mL), pseudovirus neutralization [37]: 0.163 µg/mL
